Assays:
p73 [1] = molecular target: T1, p73 (Homo sapiens, UniProt O15350); experiment: p73 protein level (stabilization) by immunoblot in cotransfected COS7 cells; assay type: cell-based; details: COS7 cotransfection
T1 construct: expressed in transfected cells; host or cells: COS7
T1 sequence (O15350 1-499 isoform O15350-2): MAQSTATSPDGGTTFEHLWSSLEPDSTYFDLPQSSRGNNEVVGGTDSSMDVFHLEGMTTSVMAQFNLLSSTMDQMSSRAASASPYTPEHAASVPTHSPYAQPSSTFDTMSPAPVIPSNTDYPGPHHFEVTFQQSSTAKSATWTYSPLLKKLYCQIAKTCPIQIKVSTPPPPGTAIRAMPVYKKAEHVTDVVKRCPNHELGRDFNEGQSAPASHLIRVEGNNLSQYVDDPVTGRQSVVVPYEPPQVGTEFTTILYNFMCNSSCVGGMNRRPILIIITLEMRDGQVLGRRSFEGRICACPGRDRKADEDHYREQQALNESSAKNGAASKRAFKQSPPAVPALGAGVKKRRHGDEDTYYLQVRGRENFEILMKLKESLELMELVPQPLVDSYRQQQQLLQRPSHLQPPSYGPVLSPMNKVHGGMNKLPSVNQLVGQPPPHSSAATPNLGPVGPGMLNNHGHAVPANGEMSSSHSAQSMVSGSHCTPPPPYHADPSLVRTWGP
Method: (§1) Cells were transiently transfected with a total of 2 μg of expression plasmids. After 48 hours of the transfection, the cells were washed with ice-cold PBS and suspended in lysis buffer (pH 8.0; which contained 25 mM Tris-Cl, 137 mM sodium chloride, 1% Triton X-100, 1 mM phenylmethylsulfonyl fluoride (PMSF), and protease inhibitor mix (Roche Molecular Biochemicals)), followed by brief sonication. After centrifugation at 15000 rpm for 10 minutes, the supernatant was collected and assayed for protein concentrations by the Bradford assay (Bio-Rad). Equal amounts of lysates (protein amount: 50 μg) from the whole cells were denatured by boiling in Laemmli SDS-sample buffer, then separated on 10% SDS-polyacrylamide gel (SDS-PAGE), and transferred at room temperature for 1 hour to polyvinylidene difluoride (PVDF) membranes (Immobilon-P; Millipore) in Tris-glycine buffer containing 10% methanol. The membranes were blocked at room temperature for 1 hour with Tris-buffered saline (TBS-T) containing 5% skim milk and 0.1% Tween 20.
(§2) As previously reported, some protein kinases (e.g., c-Abl and PKCδ) that interact with p73 can stabilize p73. To confirm whether IKK-α influenced the stabilization of p73, COS7 cells were transfected with a constant amount of HA-p73α expression plasmid together with or without varying amounts of IKK-α expression plasmids and examined for HA-p73α protein levels. […] Next, whether IKK-β influenced the stabilization of p73 and p53 was investigated by transient transfection.

p73 [2] = molecular target: T2, p73 (Homo sapiens, UniProt O15350); experiment: as above; assay type: cell-based; details: COS7 cotransfection (FIG. 14, 15, 29)
T2 construct: expressed in transfected cells; host or cells: COS7
T2 sequence (O15350 1-636): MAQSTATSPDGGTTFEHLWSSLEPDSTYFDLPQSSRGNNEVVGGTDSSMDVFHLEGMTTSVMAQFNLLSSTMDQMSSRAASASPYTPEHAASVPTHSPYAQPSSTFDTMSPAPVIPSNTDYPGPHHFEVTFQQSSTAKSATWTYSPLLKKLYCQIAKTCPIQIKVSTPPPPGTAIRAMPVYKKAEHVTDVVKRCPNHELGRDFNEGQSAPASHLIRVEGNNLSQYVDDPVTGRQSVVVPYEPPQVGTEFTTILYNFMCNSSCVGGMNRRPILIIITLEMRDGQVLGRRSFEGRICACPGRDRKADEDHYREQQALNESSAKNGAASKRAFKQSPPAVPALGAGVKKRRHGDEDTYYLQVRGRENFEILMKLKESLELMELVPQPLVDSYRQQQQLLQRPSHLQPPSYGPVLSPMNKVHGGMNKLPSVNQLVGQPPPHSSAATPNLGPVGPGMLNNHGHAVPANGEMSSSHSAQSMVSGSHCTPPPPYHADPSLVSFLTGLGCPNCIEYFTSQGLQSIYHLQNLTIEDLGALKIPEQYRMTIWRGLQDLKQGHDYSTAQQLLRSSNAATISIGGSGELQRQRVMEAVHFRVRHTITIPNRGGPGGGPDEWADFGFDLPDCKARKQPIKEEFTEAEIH
Method: as §1, §2

GST-p73 fusion proteins = molecular target: T3, GST-p73 fusion proteins (Homo sapiens, UniProt O15350); experiment: In vitro GST pull-down assay; assay type: binding; details: in vitro pull-down (FIG. 13)
T3 construct: made in house
T3 sequence (O15350 114-328): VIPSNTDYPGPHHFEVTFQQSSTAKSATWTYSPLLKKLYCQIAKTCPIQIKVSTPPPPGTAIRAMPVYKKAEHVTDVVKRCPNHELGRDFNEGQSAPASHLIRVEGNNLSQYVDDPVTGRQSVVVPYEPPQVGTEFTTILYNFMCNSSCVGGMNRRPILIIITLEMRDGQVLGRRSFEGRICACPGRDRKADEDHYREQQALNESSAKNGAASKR
Method: Whole cell lysates prepared from COS7 cells expressing FLAG-IKK-α were mixed with glutathione S-transferase (GST) or GST fusion protein and incubated with slow shaking at 4° C. for 2 hours in the presence of glutathione-Sepharose beads (Amersham Pharmacia Biotech). Then, the Sepharose beads were precipitated by brief centrifugation and vigorously washed with NETN buffer (pH 7.5; 50 mM Tris-Cl, 150 mM sodium chloride, 0.1% NP-40, and 1 mM EDTA) containing 1 mM PMSF. The proteins bound with the beads were eluted therefrom by the addition of 30 μL of 2×Laemmli SDS sample buffer, then boiled for 5 minutes, and separated with 10% SDS-PAGE. The proteins were transferred to PVDF membranes and immunoblotted with […] as described above.
To investigate whether IKK-α interacted with p73 in cultured mammal cells, whole cell lysates were prepared from transfected COS7 cells, then immunoprecipitated with an anti-FLAG or anti-HA antibody, and analyzed by immunoblot using an anti-p73 or anti-FLAG antibody, respectively. […] Likewise, HA-p73β was co-immunoprecipitated with FLAG-IKK-α (data not shown). […] To identify determinants of p73 participating in the interaction with IKK-α, several deletion mutants of p73 fused to GST were prepared and examined for their abilities to bind to FLAG-IKK-α by in-vitro pull-down assay. […]

p53 = p53 protein level (stabilization) by immunoblot in cotransfected COS7 cells; assay type: cell-based; details: COS7 cotransfection (FIG. 14, 15)
Method: as §1
As previously reported, some protein kinases (e.g., c-Abl and PKCδ) that interact with p73 can stabilize p73. To confirm whether IKK-α influenced the stabilization of p73, COS7 cells were transfected with a constant amount of HA-p73α expression plasmid together with or without varying amounts of IKK-α expression plasmids and examined for HA-p73α protein levels. […]

B1: IKK-α: IKK-α protein, amino acid sequence SEQ ID NO: 24, expressed from plasmid; apoptosis enhancer (protein, listed as Homo sapiens)
chain: MERPPGLRPGAGGPWEMRERLGTGGFGNVCLYQHRELDLKIAIKSCRLELSTKNRERWCHEIQIMKKLNHANVVKACDVPEELNILIHDVPLLAMEYCSGGDLRKLLNKPENCCGLKESQILSLLSDIGSGIRYLHENKIIHRDLKPENIVLQDVGGKIIHKIIDLGYAKDVDQGSLCTSFVGTLQYLAPELFENKPYTATVDYWSFGTMVFECIAGYRPFLHHLQPFTWHEKIKKKDPKCIFACEEMSGEVRFSSHLPQPNSLCSLIVEPMENWLQLMLNWDPQQRGGPVDLTLKQPRCFVLMDHILNLKIVHILNMTSAKIISFLLPPDESLHSLQSRIERETGINTGSQELLSETGISLDPRKPASQCVLDGVRGCDSYMVYLFDKSKTVYEGPFASRSLSDCVNYIVQDSKIQLPIIQLRKVWAEAVHYVSGLKEDYSRLFQGQRAAMLSLLRYNANLTKMKNTLISASQQLKAKLEFFHKSIQLDLERYSEQMTYGISSEKMLKAWKEMEEKAIHYAEVGVIGYLEDQIMSLHAEIMELQKSPYGRRQGDLMESLEQRAIDLYKQLKHRPSDHSYSDSTEMVKIIVHTVQSQDRVLKELFGHLSKLLGCKQKIIDLLPKVEVALSNIKEADNTVMFMQGKRQKEIWHLLKIACTQSSARSLVGSSLEGAVTPQTSAWLPPTSAEHDHSLSCVVTPQDGETSAQMIEENLNCLGHLSTIIHEANEEQGNSMMNLDWSWLTE
Question: What does the source list for B1?
Answer: stabilization of HA-p73β (p73 [1]): stabilized by IKK-α at a degree lower than that of HA-p73α; amount of HA-p73α (p73 [2]): remarkably increased the amount of HA-p73α; binding to GST-p73 deletion mutants (GST-p73 fusion proteins): bonded to GST-p73 (114-328) but not to other GST-fused proteins; stabilization of p53 (p53): no detectable effect on the stabilization of FLAG-p53
